US20140234325A1 (ALBERT EINSTEIN COLLEGE OF MEDICINE, published 2014)

B1: mAb 6D3 (antibody, V domains shown)
VH: QVQLQQSGAELVKPGASVKLSCKASGYTFTSHWMHWVKQRPGQGLEWIGEIDPSDSYINYNQIFEGKATLTVDKSSTTAYLQLSSLTSEDSAVYYCARTAGLLAPMDYWGQGTSVTVSS
VL: DIVMTQSPSSLTVTAGEKVTMTCKSSQSLFNSGNQKNFLTWYQQIPGQPPKLLIYWASTRDSGVPDRFTGSGSGTDFTLTISSVQAEDLAVYYCQNDYTYPLTFGVGTKLELK
B2: mAb 14G8 (antibody, V domains shown)
VH: EVQLLESGGGLVQPGGSLKLSCATSGFTFSAYGLSWVRQTPERRLEWVASISGGGSVYYPDSVKGRFTISRDTAGDILFLQMNSLRSEDSAIYYCVRDLYGDYVGRYAYWGQGTLVIVSA
VL: DIVMTQSPATLSVTPGDRVSLSCRASQSIGDYLHWYQQKSHESPRLLINYASQSISGIPSRFSGSGSGSDFTLIINSVEPEDVGVYYCQNGHSFPYTFGGGTKLEIR
B3: mAb 20B1 (antibody, V domains shown)
VH: QIQLVQSGPELKKPGETVRISCKASGYIFTIAGIQWVQKMPGRGLRWIGWINTHSGVPEYAEEFKGRFAFSLETSARTAYLQISNLKDEDTATYFCARIYYGNNGGVMDYWGQGTSVTVSS
VL: DIQMTQSPSSLSASLGERVSLTCRASQEISDYLTWLQQKPDGTIKRLIYVASSLDSGVPKRFSGSRSGSDYSLTISSLESEDFADYYCLQYANYPWTFGGGTKLEIR

Experiments:
[1] = target: T1, toxic shock syndrome toxin-1 (TSST-1) (Staphylococcus aureus, UniProt P06886 41-234); assay: Western blot with purified toxin
T1 sequence: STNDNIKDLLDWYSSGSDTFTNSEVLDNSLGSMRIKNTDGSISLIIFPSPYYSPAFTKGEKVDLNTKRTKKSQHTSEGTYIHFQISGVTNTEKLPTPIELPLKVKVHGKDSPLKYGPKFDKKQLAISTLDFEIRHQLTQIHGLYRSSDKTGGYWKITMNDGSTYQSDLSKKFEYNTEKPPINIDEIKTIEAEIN

[2] = target: T2, staphylococcal enterotoxin A (SEA) (Staphylococcus aureus, UniProt P0A0L1 25-257); assay: Western blot with purified toxin
T2 sequence: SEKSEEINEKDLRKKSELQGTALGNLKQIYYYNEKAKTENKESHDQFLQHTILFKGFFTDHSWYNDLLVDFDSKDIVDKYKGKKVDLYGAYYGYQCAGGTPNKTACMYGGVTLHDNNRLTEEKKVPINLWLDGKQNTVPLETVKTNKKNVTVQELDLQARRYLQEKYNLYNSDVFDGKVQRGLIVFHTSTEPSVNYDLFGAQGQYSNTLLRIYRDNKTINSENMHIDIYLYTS

| Binder | binding result [1] | binding result [2] |
| --- | --- | --- |
| B1 | no binding | no binding |
| B2 | no binding | no binding |
| B3 | no binding | no binding |
